Data on nine molecules can be found in patent publication US6653127B1, “Single-chain recombinant complexes of hepatitis C virus NS3 protease and NS4A cofactor peptide” (Schering Corporation, priority 1997, dated 2003).

For one series, the target named is NS3 (Hepatitis C virus genotype 1b, UniProt P26663). The following applies: read-out: affinity for NS3 in solution; cited from earlier work.
The target of series [1] is Biotin-DTEDVVAC …-pY (streptavidin-tagged peptide) (Hepatitis C virus). The series can be described thus: SPR (BIAcore); 4G10 amine-coupled to the chip, streptavidin-tagged phosphotyrosine peptide injected, regeneration with 2 M MgCl2.
Series [2] addresses T1, His-NS31-181 (NS3 catalytic domain) (Hepatitis C virus (1b/BK strain), UniProt Q9WMX2 1027-1206).
T1 chain: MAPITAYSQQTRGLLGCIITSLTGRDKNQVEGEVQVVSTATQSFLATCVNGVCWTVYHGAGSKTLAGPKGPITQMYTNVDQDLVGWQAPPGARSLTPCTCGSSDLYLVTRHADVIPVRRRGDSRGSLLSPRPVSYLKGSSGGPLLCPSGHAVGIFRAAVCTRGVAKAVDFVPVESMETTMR
The experiment in a line: cell-based or functional assay.

The nature of series [3]: Size exclusion chromatography (aggregated vs monodispersed form). It is filed as physicochemical. The following applies: for period for which the complex remains monodispersed: 4° C. Here is the method:
Two hundred μl of various purified proteins were applied to a calibrated Superdex-75 HR (1 cm×30 cm) FPLC column equilibrated with 25 mM HEPES, pH 7.4, 1M NaCl and 10% glycerol and 10 mM βME at 0.5 ml/min. The column was precalibrated using Pharmacia standard calibration proteins (BSA: 67 KDa; Ovalbumin: 43 KDa; Chymotrypsinogen A: 31 KDa; Ribonuclease A: 13.7 KDa). Protein elution was monitored at 280 nm.
For orientation: SEC sorts molecules by how far they enter the pores of the column.

The target of series [4] is T2, 5A/5B (P8P8') substrate DTEDVVCC*SMSYTWTG-K.
T2 chain: DTEDVVCCSMYTWTGK

Series [5] deals with 5A/5B (P8P8′) substrate DTEDVVCC*SMSYTWTG-K. The experiment in a line: Proteolytic activity by 1D-HPLC (reverse-phase) with 5A/5B substrate. It is filed as biochemical, HCV Japanese (1b/BK) strain. The following applies: for Km / kcat: 5A/5B substrate, room temperature, 60 min, footnote a for His-NS31-181 + NS4A Peptide: [E] = 0.25 μM, [NS4A Peptide] = 10 μM. Here is the method: Following expression and purification, newly engineered recombinant species were assayed for proteolytic activity utilizing a 1D-HPLC (reverse-phase chromatography) technique. Assays were conducted using the 5A/5B (P8P8′) substrate DTEDVVCC*SMSYTWTG-K (SEQ ID NO: 25) in 25 mM Tris-HCl pH 7.5, 150 mM NaCl, 0.5 mM EDTA, 10 mM DTT, 10% glycerol, and 0.05% lauryl maltoside. Concentration of all proteins were determined by BIORAD dye method). […] Reactions were incubated at room temperature for 60 minutes and were quenched with an equal volume of 10% phosphoric acid. Following injection, cleavage products were monitored under a linear 0-80% acetonitrile gradient in 0.1% TFA. The product P1′P8′K peak areas were automatically converted to product quantity in nanomoles by a standard curve.
The various covalent NS4A-NS3 complexes whose proteolytic efficiency has been determined according to the above method, and the results of each determination, are shown in Table 1.

The nature of series [6]: Solubility judged by achievable concentration of the complex. It is filed as physicochemical. The source says:
Thirteen representative embodiments of such mutant NS4A-NS3 complexes are disclosed in the Examples below. In some embodiments, the isoleucine at position 17 is mutated to lysine. One such mutant form is referred to as His-NS4A21-32-GSGS-NS33-181/I17K (SEQ ID NO: 2). In other embodiments, the same mutation is made at position 18. One such mutant form is referred to as His-NS4A21-32-GSGS-NS33-181/I18K (SEQ ID NO: 3). In yet other embodiments, the mutations are introduced at both positions. One such mutant is referred to as His-NS4A21-32-GSGS-NS33-181/I17K,I18K (SEQ ID NO: 4).
A “soluble” covalent complex as referred to herein is defined as a protein which will remain in solution after a high spin centrifugation step at 300,000×g in a standard ultracentrifuge in a buffer containing 25 mM HEPES, pH 7.6, 10% glycerol, 0.3 M NaCl, 10 mM βME.

On to “NS4A peptide: 13-19 residue NS4A peptide spanning the central hydrophobic domain of the full-length NS4A protein (KKGSVVIVGRIVLSGKPAIIPKK)”, for which, in the series with NS3, the Kd is 10 µM.
Consider “Anti-phosphotyrosine monoclonal antibody 4G10 (Upstate Biotechnology Inc.)”, for which the % binding of tagged peptide after regeneration in series [1] turned out to be 100%.

B1: 4A peptide KKGSVVIVGRIVLSGKPAIIPKK (peptide)
peptide: KKGSVVIVGRIVLSGKPAIIPKK
B1: in series [2], the “catalytic activity relative to full-length NS31-631-NS4A1-54” value came to 8 fold lower.

B2: His-NS4A21-32-GSGS-NS33-181/I17K (protein)
chain: MGSSHHHHHHSSGLVPRGSHMGSVVIVGRIILSGSGSITAYSQQTRGLLGCKITSLTGRDKNQVEGEVQVVSTATQSFLATCVNGVCWTVYHGAGSKTLAGPKGPITQMYTNVDQDLVGWQAPPGARSLTPCTCGSSDLYLVTRHADVIPVRRRGDSRGSLLSPRPVSYLKGSSGGPLLCPSGHAVGIFRAAVCTRGVAKAVDFVPVESMETTMRS
Regarding B2, in series [3], the “dispersion state as judged by size exclusion chromatography” value (“dispersion state as judged” below) was “monodispersed” and the “period for which the complex remains monodispersed” value is “about one week”. Moreover, in series [4], the Km – broadly, the substrate concentration at which the rate is half of its maximum – came out at 20 µM; the catalytic constant (kcat) (as a rule, the number of substrate molecules converted per active site and unit of time at saturation) was found to be 0.267 s⁻¹; the kcat/Km (commonly the turnover number divided by the Michaelis constant) amounted to 14000 M⁻¹ s⁻¹. In addition, in series [5], the “kinetic properties compared with wild type” value is given as “identical to those of the wild type”, the Michaelis constant (Km) was found to be 20 ± 2 µM and the turnover number (kcat) was determined as 0.267 ± 0.05 s⁻¹. Also, the “achievable concentration of the complex (solubility)” value (“achievable concentration” below) in series [6] lay within 17 to 20 mg/mL.

B3: His-NS4A21-32-GSGS-NS33-181/I17K,I18K (protein)
chain: MGSSHHHHHHSSGLVPRGSHMGSVVIVGRIILSGSGSITAYSQQTRGLLGCKKTSLTGRDKNQVEGEVQVVSTATQSFLATCVNGVCWTVYHGAGSKTLAGPKGPITQMYTNVDQDLVGWQAPPGARSLTPCTCGSSDLYLVTRHADVIPVRRRGDSRGSLLSPRPVSYLKGSSGGPLLCPSGHAVGIFRAAVCTRGVAKAVDFVPVESMETTMRS
As for B3, in series [3], the “dispersion state as judged” value is on record as “monodispersed” and the “period for which the complex remains monodispersed” value was “about one week”. For the same molecule, the “kinetic properties compared with wild type” value in series [5] is “identical to those of the wild type”. Further, in series [6], the “achievable concentration” value lay in the range of 17 to 20 mg/mL.

B4: His-NS4A21-32-GSGS-NS33-181 (protein)
chain: MGSSHHHHHHSSGLVPRGSHMGSVVIVGRIILSGSGSITAYSQQTRGLLGCIITSLTGRDKNQVEGEVQVVSTATQSFLATCVNGVCWTVYHGAGSKTLAGPKGPITQMYTNVDQDLVGWQAPPGARSLTPCTCGSSDLYLVTRHADVIPVRRRGDSRGSLLSPRPVSYLKGSSGGPLLCPSGHAVGIFRAAVCTRGVAKAVDFVPVESMETTMRS
For B4, in series [4], the Michaelis-Menten constant (Km) amounted to 19 µM, the kcat worked out at 0.15 s⁻¹ and the kcat/Km was found to be 8000 M⁻¹ s⁻¹.

B5: His-NS4A21-32-GSGS-NS33-181/I18K (protein)
chain: MGSSHHHHHHSSGLVPRGSHMGSVVIVGRIILSGSGSITAYSQQTRGLLGCIKTSLTGRDKNQVEGEVQVVSTATQSFLATCVNGVCWTVYHGAGSKTLAGPKGPITQMYTNVDQDLVGWQAPPGARSLTPCTCGSSDLYLVTRHADVIPVRRRGDSRGSLLSPRPVSYLKGSSGGPLLCPSGHAVGIFRAAVCTRGVAKAVDFVPVESMETTMRS
Turning to B5, in series [3], the “dispersion state as judged” value is given as “monodispersed” and the “period for which the complex remains monodispersed” value is recorded as “about one week”. Besides, in series [4], the Km came out at 22 µM, the kcat was 0.167 s⁻¹ and the specificity constant (kcat/Km) was 8000 M⁻¹ s⁻¹. Moreover, in series [5], the “kinetic properties compared with wild type” value is given as “identical to those of the wild type”, the Km is 22 ± 2 µM and the kcat is 0.167 ± 0.033 s⁻¹. In addition, the “achievable concentration” value in series [6] lay within 17 to 20 mg/mL.

B6: NS31-631-NS4A1-54 (non-covalent full-length NS3 protease / NS4A complex) (protein)
chain 1: MAPITAYSQQTRGLLGCIITSLTGRDKNQVEGEVQVVSTATQSFLATCVNGVCWTVYHGAGSKTLAGPKGPITQMYTNVDQDLVGWQAPPGARSLTPCTCGSSDLYLVTRHADVIPVRRRGDSRGSLLSPRPVSYLKGSSGGPLLCPSGHAVGIFRAAVCTRGVAKAVDFVPVESMETTMRSPVFTDNSSPPAVPQSFQVAHLHAPTGSGKSTKVPAAYAAQGYKVLVLNPSVAATLGFGAYMSKAHGIDPNIRTGVRTITTGAPVTYSTYGKFLADGGCSGGAYDIIICDECHSTDSTTILGIGTVLDQAETAGARLVVLATATPPGSVTVPHPNIEEVALSNTGEIPFYGKAIPIEAIRGGRHLIFCHSKKKCDELAAKLSGLGINAVAYYRGLDVSVIPTIGDVVVVATDALMTGYTGDFDSVIDCNTCVTQTVDFSLDPTFTIETTTVPQDAVSRSQRRGRTGRGRRGIYRFVTPGERPSGMFDSSVLCECYDAGCAWYELTPAETSVRLRAYLNTPGLPVCQDHLEFWESVFTGLTHIDAHFLSQTKQAGDNFPYLVAYQATVCARAQAPPPSWDQMWKCLIRLKPTLHGPTPLLYRLGAVQNEVTLTHPITKYIMACMSADLEVVT
chain 2: STWVLVGGVLAALAAYCLTTGSVVIVGRIILSGRPAIVPDRELLYQEFDEMEEC
Take B6: in series [4], the Km turned out to be 20 µM, the kcat worked out at 0.167 s⁻¹ and the kcat/Km stood at 8000 M⁻¹ s⁻¹.

B7: His-NS31-181 + NS4A Peptide (non-covalent complex) (protein)
chain 1: MAPITAYSQQTRGLLGCIITSLTGRDKNQVEGEVQVVSTATQSFLATCVNGVCWTVYHGAGSKTLAGPKGPITQMYTNVDQDLVGWQAPPGARSLTPCTCGSSDLYLVTRHADVIPVRRRGDSRGSLLSPRPVSYLKGSSGGPLLCPSGHAVGIFRAAVCTRGVAKAVDFVPVESMETTMR
chain 2: KKGSVVIVGRIVLSGKPAIIPKK
Turning to B7, in series [4], the Km was determined as 80 µM, the kcat was 0.05 s⁻¹ and the kcat/Km was 500 M⁻¹ s⁻¹.
